Test results from US20050130203A1, “Novel GABAB receptor DNA sequences” (Board of Regents, The University of Texas System, priority 1998, published 2005).
Each block holds one molecule with its values, some of them ahead of it.

Assays:
GABABR1a = target: T1, GABABR1a (Mus musculus, UniProt Q9WV18); test: Xenopus melanophore pigment aggregation/dispersion assay, GABABR1a alone; format: cell-based, murine; conditions: melanophores transfected with GABABR1a alone; up to 1 mM
T1 construct: GABABR1a was expressed by subcloning full-length GABABR1a into the NheI-NotI site of pcDNA3.1 or pCIneo; expressed in transfected cells; host or cells: Xenopus laevis melanophores (transient)

murine GABABR1a (murine) = murine GABABR1a (murine) (UniProt Q9WV18); test: cell-based or functional assay
[1] = target: the molecule itself; test: [125I]CGP71872 photolabelling of COS-7 membranes, SDS-PAGE (FIG. 9)
[2] = target: T2, FLAG epitope-tagged HG20 receptor subunit (FLAG epitope fused to amino acids 52-941 of HG20) (human, UniProt O75899 52-941); test: co-immunoprecipitation and immunoblot
T2 construct: Expressed from SF-HG20/pcDNA3.1 in COS cells and melanophores, or from pT7TS cRNA in oocytes; For immunoprecipitation it was solubilized from membranes with digitonin; also called FLAG-HG20; SF-HG20
T2 sequence: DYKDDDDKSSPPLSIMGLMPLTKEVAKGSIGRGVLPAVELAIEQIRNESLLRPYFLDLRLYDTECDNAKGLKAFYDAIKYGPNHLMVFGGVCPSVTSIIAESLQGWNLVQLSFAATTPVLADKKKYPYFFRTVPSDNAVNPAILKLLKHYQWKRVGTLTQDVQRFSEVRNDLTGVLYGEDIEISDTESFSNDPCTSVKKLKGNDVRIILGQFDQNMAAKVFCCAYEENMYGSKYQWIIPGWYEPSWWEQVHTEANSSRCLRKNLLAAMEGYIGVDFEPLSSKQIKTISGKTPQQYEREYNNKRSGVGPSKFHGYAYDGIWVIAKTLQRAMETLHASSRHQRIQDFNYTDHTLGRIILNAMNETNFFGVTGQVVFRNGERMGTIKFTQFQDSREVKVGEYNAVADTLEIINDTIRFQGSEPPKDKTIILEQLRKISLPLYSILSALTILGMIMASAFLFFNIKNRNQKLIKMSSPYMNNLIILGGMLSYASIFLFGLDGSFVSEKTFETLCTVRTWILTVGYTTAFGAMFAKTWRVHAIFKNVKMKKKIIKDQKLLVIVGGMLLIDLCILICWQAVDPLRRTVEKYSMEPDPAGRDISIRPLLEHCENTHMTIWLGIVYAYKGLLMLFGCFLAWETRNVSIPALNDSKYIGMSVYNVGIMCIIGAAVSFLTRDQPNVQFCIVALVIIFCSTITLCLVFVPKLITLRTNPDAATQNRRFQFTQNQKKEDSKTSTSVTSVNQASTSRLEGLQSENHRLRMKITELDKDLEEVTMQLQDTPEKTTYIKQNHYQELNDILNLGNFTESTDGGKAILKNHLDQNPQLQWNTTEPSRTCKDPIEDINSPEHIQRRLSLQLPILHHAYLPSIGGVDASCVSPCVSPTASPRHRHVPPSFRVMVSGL

Procedure for wild-type HEK293 cells: Following a 20 min incubation at 37° C., the assay was terminated by setting the cells on ice and centrifuging at 2,000 rpm for 5 min at 4° C. […] Immulon II removawells (Dynatech; Chantilly, Va.) were coated overnight with 100 μl of protein G (1 mg/ml in 0.1M NaHCO3, pH 9.0) at 4° C. Prior to use, protein G-coated plates were rinsed with PBS-gelatin-Tween (phosphate buffered saline containing 0.1% gelatin, 0.2% Tween-20) 3 times quickly, and then once for 30 minutes. […] Plates were incubated 2 hr at 37° C. or overnight at 4° C., rinsed 3 times with sodium acetate buffer, blotted dry, and then individual wells were broken off and bound radioactivity was determined in a gamma counter.

Molecule: N[C@@H](CCC(=O)O)C(=O)O [L-Glutamate, (L)-glutamic acid]
pigment aggregation or dispersion response (GABABR1a): no pigment aggregation or dispersion response

Molecule: NCC(CC(=O)O)c1ccc(Cl)cc1 (stereo not shown) [baclofen]
inhibition of forskolin-stimulated cAMP synthesis (wild-type HEK293 cells): did not exhibit

Molecule: NC/C=C\C(=O)O [cis-4-aminocrotonic acid]
pigment aggregation or dispersion response (GABABR1a): no pigment aggregation or dispersion response

Molecule: O=S(=O)(O)C1CCNCC1 [piperidine-4-sulfonic acid]
pigment aggregation or dispersion response (GABABR1a): no pigment aggregation or dispersion response

reduction of forskolin-stimulated cAMP synthesis in HEK293 cells (hgb2-42 cells transfected with GABABR1a, GABA plus AOAA and nipecotic acid) (murine GABABR1a (murine)): 43 % decrease
Molecule: HG20 as expressed in HEK293 cells (HG20 cDNA in pcDNA3.1) (from UniProt O75899 42-941)

reduction of forskolin-stimulated cAMP synthesis in HEK293 cells (hgb2-42 cells transfected with GABABR1a, baclofen) (murine GABABR1a (murine)): 34 % reduction | reduction of forskolin-stimulated cAMP synthesis in HEK293 cells (rgb1a-50 cells transfected with HG20, 30 µM GABA plus AOAA and nipecotic acid) (murine GABABR1a (murine)): 40 % decrease | reduction of forskolin-stimulated cAMP synthesis in HEK293 cells (rgb1a-50 cells transfected with HG20, 30 µM baclofen) (murine GABABR1a (murine)): 28 % reduction
Molecule: HG20 as expressed in HEK293 cells (HG20 cDNA in pcDNA3.1) (from UniProt O75899 42-941) (receptor)

binding result [2]: binds
B1: murine GABABR1a (receptor)
chain: GAQTPNVTSEGCQIIHPPWEGGIRYRGLIRDQVKAINFLPVDYEIEYVCRGEREVVGPKVRKCLANGSWTDMDTPSRCVRICSKSYLTLENGKVFLTGGDLPALDGARVDFRCDPDFHLVGSSRSICSQGQWSTPKPHCQVNRTPHSERRAVYIGALFPMSGGWPGGQACQPAVEMALEDVNSRRDILPDYELKLIHHDSKCDPGQATKYLYELLYNDPIKIILMPGCSSVSTLVAEAARMWNLIVLSYGSSSPALSNRQRFPTFFRTHPSATLHNPTRVKLFEKWGWKKIATIQQTTEVFTSTLDDLEERVKEAGIEITFRQSFFSDPAVPVKNLKRQDARIIVGLFYETEARKVFCEVYKERLFGKKYVWFLIGWYADNWFKTYDPSINCTVEEMTEAVEGHITTEIVMLNPANTRSISNMTSQEFVEKLTKRLKRHPEETGGFQEAPLAYDAIWALALALNKTSGGGGRSGVRLEDFNYNNQTITDQIYRAMNSSSFEGVSGHVVFDASGSRMAWTLIEQLQGGSYKKIGYYDSTKDDLSWSKTDKWIGGSPPADQTLVIKTFRFLSQKLFISVSVLSSLGIVLAVVCLSFNIYNSHARYIQNSQPNLNNLTAVGCSLALAVVFPLGLDGYHIGRSQFPFVCQARLWLLGLGFSLGYGSMFTKIWWVHTVFTKKEEKKEWRKTLEPWKLYATVGLLVGMDVLTLAIWQIVDPLHRTIETFAKEEPKEDIDVSILPQLEHCSSKKMNTWLGIFYGYKGLLLLLGIFLAYETKSVSTEKINDHRAVGMAIYNVAVLCLITAPVTMILSSQQDAAFAFASLAIVFSSYITLVVLFVPKMRRLITRGEWQSETQDTMKTGSSTNNNEEEKSRLLEKENRELEKIIAEKEERVSELRHQLQSRQQLRSRRHPPTPPDPSGGLPRGPSEPPDRLSCDGSRVHLLYK
notes: Full-length cDNA was expressed in COS-7 cells, HEK293 cells, melanophores and oocytes; also called mgb1a; gb1a
binding result [1]: binds
